Laboratory results as given in PMC4992971, “ATP-Dependent C–F Bond Cleavage Allows the Complete Degradation of 4-Fluoroaromatics without Oxygen” (mBio, 2016).

What was measured:
[1] = substrate: CC(C)(COP(=O)(O)OP(=O)(O)OC[C@H]1O[C@@H](n2cnc3c(N)ncnc32)[C@H](O)[C@@H]1OP(=O)(O)O)[C@@H](O)C(=O)NCCC(=O)NCCSC(=O)c1ccccc1; experiment: continuous spectrophotometric assay, dithionite-reduced methyl viologen as electron donor; type: biochemical, Thauera aromatica; details: ATP-dependent, 30°C, enriched enzyme
[2] = substrate: CC(C)(COP(=O)(O)OP(=O)(O)OC[C@H]1O[C@@H](n2cnc3c(N)ncnc32)[C@H](O)[C@@H]1OP(=O)(O)O)[C@@H](O)C(=O)NCCC(=O)NCCSC(=O)c1ccc(F)cc1; experiment: as above; type: biochemical, Thauera aromatica; details: ATP-dependent, 30°C, enriched enzyme

B1: 4-F-BCR / class I benzoyl-CoA reductase (BCR, BcrABCD) (Thauera aromatica) (protein)
chain 1: SAKTNPEVIKESSMVKQKEMIAGNYDRLTGTKESGEKVVSTFVPGNLNELIMCFDMVNNLPETNAIQNGMRKQSGGMIMDAEKAGHSEDVCTYVKADIGMMGRGNIAPNGKPMPAPDMLLLSYTGCFTFMKWFELLRHEYKCPTVMLQIPYQGDGKITKNMRDFVVKQLKEEVIPMFEQVSGVKFDIDRLREYLKNSAKAEDDLVWVLESAKNRPSPIDAYFGGVYYIGPMFTAFRGTADAVEYYGLLRGEIEQRIREGKGPITPEGDMKEEKYRLVVEGPPNWTSFREFWKLFYDEGAVVVASSYTKVGGLYDQGFRHDPNDPLGTLADYCLGCYTNNNLPQRVELLEKYMNEYQADGLLINSIKSCNSFSAGQLLMMREIEKRTGKPAAFIETDLVDPRYFSHANVKNRLESYFQMVDQKRSGASLATA
chain 2: STADIIARCEALYEDLDFTAARQWKEADPSRKVIAYMPVYVPREIIHAAGMLPLGIMGGGDGLEVIHGDAFYQSYICRIPRSTIELGLSKRMDFVDGMLFPSICDVIRNLSGMWKLMFPGKYVRYFDVPQNYRDDVGGNYYTAELNELREGLEHLSGRKITDDALRASIKVYNENRKLVQDVYGLRSREPWKVPSADVYLLMRAGLVLPVEEHNQMLKDYLAAAVKVEAQKRDNCRVIINGSFCEQPPLNLIKSIELSGCYIVDDDYMIVHRFLRNEVSTAGDPMQNLSLAFLHESISTAAKYDDKEEDKGKYLLEQVRTNAAEGVIFAAPSFCDPALLERPMLADRCSENKVPYISFKYAENSGQMQPIREQAGTFADSIKLWS
notes: native enzyme enriched from 4-fluorobenzoate-grown cells, heterotetramer of four subunits BcrABCD, no tag; with Benzoyl-CoA reductase subunit A; Benzoyl-CoA reductase subunit D
Km [1]: 43 µM
Km [2]: 97 µM
